Starred links: 1 amine or outer side, 2 acyl side, 3 side chain; linkers in the order of their positions; H or OH if unused. Positions of bridges follow the written chain, without caps; N, C: chain ends. Non-standard residues stand in square brackets, D forms with d. Groups on a side chain read outwards from the residue. Primed or numbered codes have the meaning given here. *: point of attachment. MeKCOpipzaa″ = (2S)-6-{[4-(carboxymethyl)piperazine-1-carbonyl]amino}-2-(methylamino)hexanoic acid, CN([C@@H](CCCCNC(=O)N1CCN(CC(=O)[*:3])CC1)C(=O)[*:2])[*:1]; TMe(3) = O-methyl-L-threonine ((2S,3R)-2-amino-3-methoxybutanoic acid), CO[C@H](C)[C@H](N[*:1])C(=O)[*:2]; Hgn = 2,6-diamino-6-oxohexanoic acid, NC(=O)CCC[C@H](N[*:1])C(=O)[*:2]; Phe(4-(1-Me-pyrazol-4-yl)) = Cn1cc(-c2ccc(C[C@H](N)C(=O)O)cc2)cn1; TMe = O-methyl-L-threonine, CO[C@H](C)[C@H](N[*:1])C(=O)[*:2]; PEG12 = NCCOCCOCCOCCOCCOCCOCCOCCOCCOCCOCCOCCOCCC(=O)O; Phe(4-CH2COOH) = N[C@@H](Cc1ccc(CC(=O)O)cc1)C(=O)O; 3Pal(6-Ph) = N[C@@H](Cc1ccc(-c2ccccc2)nc1)C(=O)O; Biotin = O=C1N[C@H]2[C@H](CS[C@H]2CCCCC(=O)*)N1; Phe(4-COOH) = N[C@@H](Cc1ccc(C(=O)O)cc1)C(=O)O; NMe2Nal = CN[C@@H](Cc1ccc2ccccc2c1)C(=O)O; AEF = NCCOc1ccc(C[C@H](N)C(=O)O)cc1; NMeY = CN[C@@H](Cc1ccc(O)cc1)C(=O)O; NMeQ = CN[C@@H](CCC(N)=O)C(=O)O; NMeC = CN[C@@H](CS)C(=O)O; NMeA = CN[C@@H](C)C(=O)O; MeK = methyl-L-lysine
B1: Macrocyclic peptide of Example 2-56 (SEQ ID No. 27) (peptide)
peptide: {CH2CO}-[NMeQ][NMeQ]D[NMeQ][AEF]II[Phe(4-CH2COOH)][NMe2Nal]G[Phe(4-(1-Me-pyrazol-4-yl))][NMeC]-NH2
modifications: thioether N-12
SMILES: CC[C@H](C)[C@@H]1NC(=O)[C@H](Cc2ccc(OCCN)cc2)NC(=O)[C@H](CCC(N)=O)N(C)C(=O)[C@H](CC(=O)O)NC(=O)[C@H](CCC(N)=O)N(C)C(=O)[C@H](CCC(N)=O)N(C)C(=O)CSC[C@@H](C(N)=O)N(C)C(=O)[C@H](Cc2ccc(-c3cnn(C)c3)cc2)NC(=O)CNC(=O)[C@H](Cc2ccc3ccccc3c2)N(C)C(=O)[C@H](Cc2ccc(CC(=O)O)cc2)NC(=O)[C@H]([C@@H](C)CC)NC1=O
B2: Macrocyclic peptide of Example 2-53 (SEQ ID No. 28) (peptide)
peptide: {CH2CO}-[NMeQ][NMeQ]D[NMeQ][Phe(4-COOH)]II[AEF][NMe2Nal]G[Phe(4-(1-Me-pyrazol-4-yl))][NMeC]-NH2
modifications: thioether N-12
SMILES: CC[C@H](C)[C@@H]1NC(=O)[C@H](Cc2ccc(C(=O)O)cc2)NC(=O)[C@H](CCC(N)=O)N(C)C(=O)[C@H](CC(=O)O)NC(=O)[C@H](CCC(N)=O)N(C)C(=O)[C@H](CCC(N)=O)N(C)C(=O)CSC[C@@H](C(N)=O)N(C)C(=O)[C@H](Cc2ccc(-c3cnn(C)c3)cc2)NC(=O)CNC(=O)[C@H](Cc2ccc3ccccc3c2)N(C)C(=O)[C@H](Cc2ccc(OCCN)cc2)NC(=O)[C@H]([C@@H](C)CC)NC1=O
B3: Macrocyclic peptide of Example 2-55 (SEQ ID No. 56) (peptide)
peptide: {CH2CO}-[MeKCOpipzaa″][NMeA]D[NMeY][Phe(4-COOH)][TMe]I[AEF][NMeY]G[3Pal(6-Ph)][NMeC]-NH2
modifications: thioether N-12
SMILES: CC[C@H](C)[C@@H]1NC(=O)[C@H]([C@@H](C)OC)NC(=O)[C@H](Cc2ccc(C(=O)O)cc2)NC(=O)[C@H](Cc2ccc(O)cc2)N(C)C(=O)[C@H](CC(=O)O)NC(=O)[C@H](C)N(C)C(=O)[C@H](CCCCNC(=O)N2CCN(CC(=O)O)CC2)N(C)C(=O)CSC[C@@H](C(N)=O)N(C)C(=O)[C@H](Cc2ccc(-c3ccccc3)nc2)NC(=O)CNC(=O)[C@H](Cc2ccc(O)cc2)N(C)C(=O)[C@H](Cc2ccc(OCCN)cc2)NC1=O
B4: PLB-28 (peptide)
peptide: {CH2CO}-[NMeQ][NMeQ]D[NMeQ][Phe(4-COOH)]II[AEF]([PEG12-Biotin])[NMe2Nal]G[Phe(4-(1-Me-pyrazol-4-yl))][NMeC]-NH2
modifications: thioether N-12
SMILES: CC[C@H](C)[C@@H]1NC(=O)[C@H](Cc2ccc(C(=O)O)cc2)NC(=O)[C@H](CCC(N)=O)N(C)C(=O)[C@H](CC(=O)O)NC(=O)[C@H](CCC(N)=O)N(C)C(=O)[C@H](CCC(N)=O)N(C)C(=O)CSC[C@@H](C(N)=O)N(C)C(=O)[C@H](Cc2ccc(-c3cnn(C)c3)cc2)NC(=O)CNC(=O)[C@H](Cc2ccc3ccccc3c2)N(C)C(=O)[C@H](Cc2ccc(OCCNC(=O)CCOCCOCCOCCOCCOCCOCCOCCOCCOCCOCCOCCOCCNC(=O)CCCC[C@@H]3SC[C@@H]4NC(=O)N[C@@H]43)cc2)NC(=O)[C@H]([C@@H](C)CC)NC1=O

target: T1, Human Glypican3-Fc (ACRO Biosystems, GP3-H5258) (human, UniProt P51654 25-559); assay: SPR (Biacore T200), Method B-3: Glypican3-Fc captured on Protein A chip, peptide as analyte
T1 construct: Bought fusion protein, captured in Methods B-2, B-3 and B-4; Catalogue number is printed only in Method B-2; not shown: Fc part of the bought fusion
Protocol: A Protein A sensor chip (Cytiva) was inserted into a Biacore T200 (Cytiva), priming was performed three times with a running buffer: HBS-P+, pH 7.4 (Cytiva), and equilibration was carried out at a flow rate of 30 μL/min. Glypican3-Fc was allowed to react for 60 seconds at a flow rate of 10 μL/min. After capturing human Glypican3-Fe, a peptide solution prepared to 10 mM in DMSO solution was diluted with a running buffer to a final concentration of 10 μM. […] Using the above samples, peptide kinetics for Glypican3 was obtained by SPR measurement. Kinetics evaluation of Glypican3 was performed by SPR measurements at a flow rate of 10 LL/min, setting the association time to 120 seconds and the disassociation time to 600 seconds.
The obtained data by Method B-1, Method B-2, Method B-3 and Method B-4 were analyzed by follow. Single Cycle Kinetics was used as the kinetics evaluation model, and curve fitting was performed using Biacore T200 Evaluation Software Version 3.0 (Cytiva).

Kd	Binder
0.1 nM	{CH2CO}-[MeK][NMeQ][Hgn][NMeQ][Phe(4-COOH)][TMe(3)]IY[NMe2Nal]G[Phe(4-(1-Me-pyrazol-4-yl))][NMeC]-NH2 (thioether N-12) [Macrocyclic peptide of Example 2-54 (SEQ ID No. 29)]
7.9 nM	B1
1 nM	B2
1.6 nM	{CH2CO}-[NMeQ][NMeQ]D[MeK][Phe(4-COOH)]II[Phe(4-CH2COOH)][NMe2Nal]G[Phe(4-(1-Me-pyrazol-4-yl))][NMeC]-NH2 (thioether N-12) [Macrocyclic peptide of Example 2-52 (SEQ ID No. 26)]
5.3 nM	B3
1.53 nM	B4
